Results: article PMC2289895 (The Journal of Cell Biology, 1991)

Molecular target: the molecule itself
Experiment: SEC + co-IP

B1: NH2 epitope-tagged SIS1 (amino-terminal-tagged SIS1 protein) (natural protein)
chain: MVKETKLYDLLGVSPSANEQELKKGYRKAALKYHPDKPTGDTEKFKEISEAFEILNDPQKREIYDQYGLEAARSGGPSFGPGGPGGAGGAGGFPGGAGGFSGGHAFSNEDAFNIFSQFFGGSSPFGGADDSGFSFSSYPSGGGAGMGGMPGGMGGMHGGMGGMPGGFRSASSSPTYPEEETVQVNLPVSLEDLFVGKKKSFKIGRKGPHGASEKTQIDIQLKPGWKAGTKITYKNQGDYNPQTGRRKTLQFVIQEKSHPNFKRDGDDLIYTLPLSFKESLLGFSKTIQTIDGRTLPLSRVQPVQPSQTSTYPGQGMPTPKNPSQRGNLIVKYKVDYPISLNDAQKRAIDENF
For B1, the “stoichiometry N” value was 2.
